Reference: patent publication US20120015841A1

Molecular target: human GC-C (guanylate cyclase C) stably expressed in 293T cells (human) (UniProt P25092)
Experiment: cell-based or functional assay

Sequence of human GC-C (guanylate cyclase C) stably expressed in 293T cells (human) (P25092 24-1073): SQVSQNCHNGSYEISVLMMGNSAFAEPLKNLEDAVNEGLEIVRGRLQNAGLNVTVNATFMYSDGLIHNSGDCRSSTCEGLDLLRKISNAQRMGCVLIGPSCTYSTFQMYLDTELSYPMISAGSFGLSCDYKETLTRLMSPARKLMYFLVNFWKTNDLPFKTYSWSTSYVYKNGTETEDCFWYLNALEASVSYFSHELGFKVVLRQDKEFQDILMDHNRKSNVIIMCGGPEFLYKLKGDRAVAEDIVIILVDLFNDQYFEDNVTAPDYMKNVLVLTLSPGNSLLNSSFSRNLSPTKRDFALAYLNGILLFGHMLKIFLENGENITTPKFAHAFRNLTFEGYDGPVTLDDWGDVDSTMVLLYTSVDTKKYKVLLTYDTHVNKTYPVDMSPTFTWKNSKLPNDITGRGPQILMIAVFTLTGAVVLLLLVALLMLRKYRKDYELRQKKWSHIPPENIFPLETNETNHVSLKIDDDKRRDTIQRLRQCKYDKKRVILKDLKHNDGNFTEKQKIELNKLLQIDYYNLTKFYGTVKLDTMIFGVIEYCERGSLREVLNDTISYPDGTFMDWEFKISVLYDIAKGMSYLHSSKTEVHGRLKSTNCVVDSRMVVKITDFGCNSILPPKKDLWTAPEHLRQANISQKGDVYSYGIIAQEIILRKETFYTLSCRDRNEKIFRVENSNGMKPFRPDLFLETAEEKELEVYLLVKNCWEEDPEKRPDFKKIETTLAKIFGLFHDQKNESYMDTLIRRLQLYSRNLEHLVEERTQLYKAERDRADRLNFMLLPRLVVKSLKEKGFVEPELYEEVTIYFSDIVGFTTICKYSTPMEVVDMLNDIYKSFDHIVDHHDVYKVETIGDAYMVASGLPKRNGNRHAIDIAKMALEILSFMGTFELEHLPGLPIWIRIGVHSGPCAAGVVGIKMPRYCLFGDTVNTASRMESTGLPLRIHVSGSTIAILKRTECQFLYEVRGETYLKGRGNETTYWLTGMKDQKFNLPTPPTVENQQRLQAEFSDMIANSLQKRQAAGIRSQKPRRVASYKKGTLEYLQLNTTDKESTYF

guanylin (peptide)
EC50 of the cGMP response (absorbance, Direct Cyclic GMP Enzyme Immunoassay Kit) to a guanylin dose-response, 30 min, GC-C-expressing 293T cell line: 1.1 nM | cGMP level in the GC-C-expressing cell line treated with low concentrations of guanylin: 6 pmol/mL
